In patent US9107936B2, “Antagonists of GRASP55 for use as a medicament” (Institut National de la Sante et de la Recherche Medicale …, priority 2012, dated 2015):

Experiments:
JAM-C = target: T1, JAM-C (Mus musculus, UniProt Q9D8B7); assay: yeast two hybrid interaction of Grasp55 constructs with JAM-C; format: binding, murine; set-up: key: Symbols “+++” and “−” indicates the growth of yeast on selective media as shown in the FIGURE 13; Symbols “+++” and “−” indicates the growth of yeast on selective media as shown in the FIGURE 13
T1 construct: amino-acids 263 to 310 of murine JAM-C; expressed in transfected cells; host or cells: AH109 yeast strain
T1 sequence (Q9D8B7 263-310): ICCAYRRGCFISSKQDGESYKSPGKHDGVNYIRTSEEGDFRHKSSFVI
Excerpt: (§1) The different GRASP55 constructs were cloned into pGBT9 GW vector (Ga14 DNA-binding domain fusion vector, Trp) as well in the pACT2 GW vector (Gal4 DNA-activation domain fusion vector, Leu) using the Gateway technology (Invitrogen). Plasmids were then co-transformed in AH109 yeast strain (/MATa, trp1-901, leu2-3, 112, ura3-52, his3-200, gal4/A, /gal80/A, /LYS2::GAL1//UAS//-GAL1//TATA//-HIS3, GAL2//UAS//-GAL2//TATA//-ADE2, URA3::MEL1//UAS//-MEL1//TATA//-lacZ, MEL1/) in accordance with the previously described transformation protocol (Chien et al. 1991. Proc Natl Acad Sci USA. 88:9578-82). Following co-transformation with the two vectors containing the different constructs (as well as the empty vector to test self activation), yeasts were plated onto Synthetic Complete (SC) medium minus Leucine (−L), minus Tryptophan (−W), minus Histidine (−H) and incubated at 30° C. for 4 to 5 days. All yeast media were prepared as previously described.
(§2) In examples 2, the inventors have previously shown that interaction between Grasp55 and C-terminal part of JAM-C requires the peptidic sequence between residues 1 to 160 of Grasp55 (PDZI+II) but cannot occur with residues 1 to 79 of Grasp55 (PDZI) by yeast two hybrid and ELISA assay (FIGS. 2 and 8). In the present example, the interaction sites between JAMs or metalloproteinases involved in JAM regulation and Grasp55 have been mapped using new constructs. To this end, yeast two-hybrid and GST fusion proteins encompassing residues 1 to 107, 108 to 208, and 1 to 208 corresponding respectively to the PDZI′, PDZII′ and PDZI′+II′ constructs have been generated. The former PDZII construct (residues 80 to 160) have also been used to test interaction with the C-terminal sequences of ADAM 10 (of sequence SEQ ID NO: 41) and ADAM 17 (of sequence SEQ ID NO: 42) known to regulate JAM-A and JAM-C release (Table 1). GST fusion proteins were produced and yeast two-hybrid assay was performed as previously described in example 1.

JAM-C ΔPDZbm = target: T2, JAM-C ΔPDZbm (Mus musculus, UniProt Q9D8B7); assay: yeast two hybrid interaction of Grasp55 constructs with JAM-C ΔPDZbm; format: binding, murine; set-up: key: Symbols “+++” and “−” indicates the growth of yeast on selective media as shown in the FIGURE 13; Symbols “+++” and “−” indicates the growth of yeast on selective media as shown in the FIGURE 13
T2 construct: amino-acids 263 to 310 of murine JAM-C; expressed in transfected cells; host or cells: AH109 yeast strain
T2 sequence (Q9D8B7 263-307 limits assumed): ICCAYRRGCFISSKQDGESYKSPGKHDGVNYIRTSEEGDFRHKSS
Excerpt: as §1, §2

ADAM10 = target: T3, ADAM10 (Mus musculus, UniProt O35598, DEL741-741); assay: yeast two hybrid interaction of Grasp55 constructs with ADAM10 C-terminal sequence; format: binding, murine; set-up: key: Symbols “+++” and “−” indicates the growth of yeast on selective media as shown in the FIGURE 13; Symbols “+++” and “−” indicates the growth of yeast on selective media as shown in the FIGURE 13
T3 construct: expressed in transfected cells; host or cells: AH109 yeast strain
T3 sequence (O35598 with tags, fused parts or gaps DEL741-741): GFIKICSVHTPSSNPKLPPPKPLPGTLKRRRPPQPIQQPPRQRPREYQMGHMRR
Excerpt: as §1, §2

ADAM17 = target: T4, ADAM17 (Mus musculus, UniProt Q9Z0F8, A775V/P752S); assay: yeast two hybrid interaction of Grasp55 constructs with ADAM17 C-terminal sequence; format: binding, murine; set-up: key: Symbols “+++” and “−” indicates the growth of yeast on selective media as shown in the FIGURE 13; Symbols “+++” and “−” indicates the growth of yeast on selective media as shown in the FIGURE 13
T4 construct: expressed in transfected cells; host or cells: AH109 yeast strain
Excerpt: as §1, §2

B16F10 cells [1] = assay: wound healing assay (cell migration); format: cell-based, mouse; details: Mean+/−SEM
Protocol: Transient transfections were performed on a 50% confluent monolayer of B16F10 cells with either 10 nM of siRNA or 5 μg of shRNA against luciferase used as a control or shRNA against GRASP55 in Lipofectamine RNAimax (Invitrogen). Transfection efficiency was monitored at 24 h by qRT-PCR and Western blots for the expression of GRASP55 transcript or protein. For selection of stable transfectants, cells were grown in DMEM containing 10 μg/ml of puromycine (Sigma Aldrich) starting 48 h after transfection.
For in vitro wound healing assays, 80% confluent monolayers of wild-type B16F10 cells or B16F10 cells transfected with various siRNA or shRNA were grown in both chambers of Ibidi culture inserts with defined cell free gaps. Cells were subjected to serum starvation for 24 h, before wounds were created by removing Ibidi culture inserts that define cell gaps of 400 μm. The wound healing was carried out for 8 h in complete DMEM medium and was recorded at various times after wounding. Analysis of wound closure was performed using Metamorph software and is expressed as mean speed per minute.

B16F10 cells [2] = assay: ELISA of soluble JAM-C in cell culture supernatant; format: cell-based, mouse; details: B16F10 control 0.27±0.02; mean±SEM
Protocol: An ELISA was designed to determine the concentration of soluble JAM-C in cell culture supernatants. Ninety-six-well plates (Nalge Nunc International) were coated overnight at room temperature with rat anti-mouse JAM-C antibody H36 (home-made). Plates were washed and blocked with buffer containing PBS and 2% of bovine albumin for 2 hours. Cell culture supernatants from different cell conditions were incubated during 3 hours. Plates were washed, and polyclonal rabbit anti-JAM-C (501) was added for 1 hour at room temperature. After three washes, donkey anti-rabbit HRP antibody was put on. To reveal the final read out, the substrate of HRP, tetramethylbenzidine ([…]) is adjoined. The absorbance lecture (D.O at 450 nm) is carried out on a ELISA POLARstar reader.

JAM-A = target: T5, JAM-A (Mus musculus, UniProt O88792, R268T); assay: yeast two hybrid interaction of Grasp55 constructs with JAM-A; format: binding, murine; set-up: key: Symbols “+++” and “−” indicates the growth of yeast on selective media as shown in the FIGURE 13; Symbols “+++” and “−” indicates the growth of yeast on selective media as shown in the FIGURE 13
T5 construct: amino-acids 260 to 299 of murine JAM-A; expressed in transfected cells; host or cells: AH109 yeast strain
T5 sequence (O88792 260-300 R268T): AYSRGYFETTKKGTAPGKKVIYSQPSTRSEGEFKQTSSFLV
Excerpt: as §1, §2

JAM-A ΔPDZbm = target: T6, JAM-A ΔPDZbm (Mus musculus, UniProt O88792, R268T); assay: yeast two hybrid interaction of Grasp55 constructs with JAM-A ΔPDZbm; format: binding, murine; set-up: key: Symbols “+++” and “−” indicates the growth of yeast on selective media as shown in the FIGURE 13; Symbols “+++” and “−” indicates the growth of yeast on selective media as shown in the FIGURE 13
T6 construct: amino-acids 260 to 299 of murine JAM-A; expressed in transfected cells; host or cells: AH109 yeast strain
T6 sequence (O88792 260-297 R268T): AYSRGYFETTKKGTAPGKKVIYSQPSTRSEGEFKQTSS
Excerpt: as §1, §2

JAM-B = target: T7, JAM-B (Mus musculus, UniProt Q9JI59); assay: yeast two hybrid interaction of Grasp55 constructs with JAM-B; format: binding, murine; set-up: key: Symbols “+++” and “−” indicates the growth of yeast on selective media as shown in the FIGURE 13; Symbols “+++” and “−” indicates the growth of yeast on selective media as shown in the FIGURE 13
T7 construct: amino-acids 258 to 298 of murine JAM-B; expressed in transfected cells; host or cells: AH109 yeast strain
T7 sequence (Q9JI59 258-298): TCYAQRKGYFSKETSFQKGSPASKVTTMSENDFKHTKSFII
Excerpt: as §1, §2

JAM-B ΔPDZbm = target: T8, JAM-B ΔPDZbm (Mus musculus, UniProt Q9JI59); assay: yeast two hybrid interaction of Grasp55 constructs with JAM-B ΔPDZbm; format: binding, murine; set-up: key: Symbols “+++” and “−” indicates the growth of yeast on selective media as shown in the FIGURE 13; Symbols “+++” and “−” indicates the growth of yeast on selective media as shown in the FIGURE 13
T8 construct: amino-acids 258 to 298 of murine JAM-B; expressed in transfected cells; host or cells: AH109 yeast strain
T8 sequence (Q9JI59 258-295 limits assumed): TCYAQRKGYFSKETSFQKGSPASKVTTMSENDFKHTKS
Excerpt: as §1, §2

[3] = siRNA, 48 h post-transfection, measured over 6 h, sicontrol 167±13

T4 sequence (Q9Z0F8 693-827 P752S/A775V): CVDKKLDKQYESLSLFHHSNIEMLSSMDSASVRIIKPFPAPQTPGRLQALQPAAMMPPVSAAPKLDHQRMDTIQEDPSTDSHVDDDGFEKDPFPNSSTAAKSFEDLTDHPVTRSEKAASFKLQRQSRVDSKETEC

Substance | interaction with JAM-C (yeast growth on selective media) (JAM-C) | interaction with JAM-C ΔPDZbm (yeast growth on selective media) (JAM-C ΔPDZbm) | interaction with ADAM10 (yeast growth on selective media) (ADAM10) | interaction with ADAM17 (yeast growth on selective media) (ADAM17) | mean velocity (B16F10 cells [1]; B16F10 stably transfected with shRNA, shctrl 249±5) | quantity of soluble JAM-C in cell culture supernatant (B16F10 cells [2]) | interaction with JAM-A (yeast growth on selective media) (JAM-A) | interaction with JAM-A ΔPDZbm (yeast growth on selective media) (JAM-A ΔPDZbm) | interaction with JAM-B (yeast growth on selective media) (JAM-B) | interaction with JAM-B ΔPDZbm (yeast growth on selective media) (JAM-B ΔPDZbm) | mean velocity (B16F10 cells [1]; [3])
PDZII′: Grasp55 construct, residues 108 to 208 | − | − | − | − |  |  |  |  |  |  | 
shGRASP55: shRNA against mouse GRASP55 in pSUPER.retro, target SEQ ID NO: 11, strands SEQ ID Nos. 12 and 13 (chain 1 CGGUUCAAGAUUAAAUAAATT; chain 2 AATTTATTTAATCTTGAACCG) |  |  |  |  | 184 ± 6 nm/min | 0.21 ± 0.01 ng/mL |  |  |  |  | 
PDZII: Grasp55 construct, residues 80 to 160 | − | − | +++ | +++ |  |  | − | − | − | − | 
siGRASP55#1: siRNA targeting Grasp55, SEQ ID NO: 7, 5′AAGUGAUCAUCACACCAAATT 3′, from Ambion (chemistry not given here) |  |  |  |  |  |  |  |  |  |  | 95 ± 8 nm/min
PDZI′ + II′: Grasp55 construct, residues 1 to 208 | +++ | − | − | − |  |  |  |  |  |  | 
PDZI′: Grasp55 construct, residues 1 to 107 | +++ | − | − | − |  |  |  |  |  |  | 
PDZI + II: Grasp55 construct, residues 1 to 160 | +++ | − | − | − |  |  | +++ | − | +++ | − | 
siGRASP55#01: siRNA targeting Grasp55, SEQ ID NO: 6, 5′CGUCAUGAAUGAGUCUGAATT 3′, from Ambion (chemistry not given here) |  |  |  |  |  |  |  |  |  |  | 82 ± 4 nm/min
PDZI: Grasp55 construct, residues 1 to 79 | − | − | − | − |  |  | − | − | − | − | 
